Test results as given in the supplement of paper PMC7877785.
± gives the uncertainty stated by the source.

Assay: self-splicing fitness, log relative to wild type (ln ratio); higher = more splicing; Tetrahymena group I intron in knt gene, E. coli kanamycin selection, DiMSum; sequences stand for … in CUCUCU…GGAGGGAAAAGUUAUCAGGCAUGCACCUGGUAGCUAGUCUUUAAACCAAUAGAUUGCAUCGGUUUAAAAGGCAAGACCGUCAAAUUGCGGGAAAGGGGUCAACAGCCGUUCAGUACCAAGUCUCAGGGGAAACUUUGAGAUGGCCUUGCAAAGGGUAUGGUAAUAAGCUGACGGACAUGGUCCUAACCACGCAGCCAAGUCCUAAGUCAACAGAUCUUCUGUUGAUAUGGAUGCAGUUCACAGACUAAAUGUCGGUCGGGGAAGAUGUAUUCUUCUCAUAAGAUAUAGUCGGACCUCUCCUUAAUGGGAGCUAGCGGAUGAAGUGAUGCAACACUGGAGCCGCUGGGAACUAAUUUGUAUGCGAAAGUAUAUUGAUUAGUUUUGGAGUACUCGUGGUCG
In short: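 The eight P1ex-region nucleotides of an intron in the knt kanamycin-resistance gene on pET-22b(+) were all randomised and the library put into E. coli BL21(DE3). Six replicate transformations were grown overnight at 37°C or 30°C on LB agar with or without 25 μg/mL kanamycin, together with 100 μg/mL carbenicillin, 50 μM IPTG and 0.2% rhamnose. Colonies were pooled and amplicon-sequenced on an Illumina HiSeq 2500. Fitness from DiMSum is the error-weighted combination of wild-type-normalised replicate fold changes, kanamycin over none.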

Sequence	self-splicing fitness (ln) (30 °C)	self-splicing fitness (ln) (37 °C)
AAGUAGCAAUAUUACGUUGC	-3.66 ± 0.14	-3.19 ± 0.21
AAGUAGCAAUAUUACGUUGG	-2.96 ± 0.18	-2.2 ± 0.23
AAUAAGCAAUAUUACGAACU	-0.169 ± 0.11	0.509 ± 0.14
AAUAAGCAAUAUUACGAGCC	-3.73 ± 0.29	-1.64 ± 0.22
AAUAAGCAAUAUUACGCAGA	-3.73 ± 0.3	-2.38 ± 0.23
AAUAAGCAAUAUUACGCCGA	-0.856 ± 0.14	-0.632 ± 0.16
AAUAAGCAAUAUUACGCGAA	-1.74 ± 0.12	-1.01 ± 0.12
AAUAAGCAAUAUUACGCGGU	-3.83 ± 0.24	-2.36 ± 0.17
AAUAAGCAAUAUUACGCUGU	-2.61 ± 0.23	-1.92 ± 0.22
AAUAAGCAAUAUUACGCUUG	-1.39 ± 0.13	-0.982 ± 0.15
AAUAAGCAAUAUUACGGGCU	-1.54 ± 0.14	-1.6 ± 0.14
AAUAAGCAAUAUUACGUAUG	-2.2 ± 0.11	-0.966 ± 0.12
AAUAAGCAAUAUUACGUCUA	-0.766 ± 0.077	0.434 ± 0.1
AAUAAGCAAUAUUACGUUAG	-4.52 ± 0.19	-2.69 ± 0.17
AAUAAGCAAUAUUACGUUGG	-2.74 ± 0.28	-3 ± 0.38
AAUAAGCAAUAUUACGUUUG	-3.16 ± 0.11	-1.36 ± 0.1
AAUCAGCAAUAUUACGAACC	-0.433 ± 0.11	0.499 ± 0.18
AAUCAGCAAUAUUACGACCA	-0.116 ± 0.1	0.885 ± 0.12
AAUCAGCAAUAUUACGAGAU	-2.72 ± 0.11	-0.708 ± 0.1
AAUCAGCAAUAUUACGAUAC	-0.844 ± 0.081	-0.307 ± 0.11
AAUCAGCAAUAUUACGAUCA	0.364 ± 0.09	0.109 ± 0.11
AAUCAGCAAUAUUACGCAUC	-0.287 ± 0.082	0.0734 ± 0.094
AAUCAGCAAUAUUACGCCCA	-0.426 ± 0.16	0.216 ± 0.21
AAUCAGCAAUAUUACGCCGU	-0.744 ± 0.085	-0.531 ± 0.099
AAUCAGCAAUAUUACGCCUA	-0.0982 ± 0.08	0.103 ± 0.09
AAUCAGCAAUAUUACGCGAG	-0.887 ± 0.068	-1.07 ± 0.088

Sequence	self-splicing fitness (ln) (30 °C)	self-splicing fitness (ln) (37 °C)
AAUCAGCAAUAUUACGCGUG	-0.227 ± 0.074	0.204 ± 0.085
AAUCAGCAAUAUUACGGAAC	-1.37 ± 0.064	-0.769 ± 0.093
AAUCAGCAAUAUUACGGCAG	-1 ± 0.095	-1.32 ± 0.11
AAUCAGCAAUAUUACGGGUC	-2.03 ± 0.086	-1.76 ± 0.11
AAUCAGCAAUAUUACGGUUA	-0.439 ± 0.08	-0.408 ± 0.066
AAUCAGCAAUAUUACGGUUG	-1.91 ± 0.082	-0.913 ± 0.1
AAUCAGCAAUAUUACGUAAA	-0.168 ± 0.067	0.573 ± 0.099
AAUCAGCAAUAUUACGUAGU	-0.0974 ± 0.059	0.211 ± 0.074
AAUCAGCAAUAUUACGUCCC	-0.818 ± 0.1	0.164 ± 0.14
AAUCAGCAAUAUUACGUCGC	-2.06 ± 0.17	-1.24 ± 0.17
AAUCAGCAAUAUUACGUGAU	-0.823 ± 0.048	-0.268 ± 0.067
AAUCAGCAAUAUUACGUGCC	-1.4 ± 0.14	-0.598 ± 0.16
AAUCAGCAAUAUUACGUUCU	0.0868 ± 0.061	0.0857 ± 0.085
AAUGAGCAAUAUUACGAGAG		-2.7 ± 0.41
AAUGAGCAAUAUUACGAGUG	-3.11 ± 0.27	-2.23 ± 0.23
AAUGAGCAAUAUUACGAUGA	-2.16 ± 0.12	-1.77 ± 0.15
AAUGAGCAAUAUUACGCAGC	-3.14 ± 0.44	-2.54 ± 0.36
AAUGAGCAAUAUUACGCAGG	-2.85 ± 0.14	-3.18 ± 0.29
AAUGAGCAAUAUUACGCAUG	-2.58 ± 0.17	-0.519 ± 0.12
AAUGAGCAAUAUUACGCAUU	-3.92 ± 0.47	-2.74 ± 0.36
AAUGAGCAAUAUUACGCCCG	-2.18 ± 0.43	-1.76 ± 0.42
AAUGAGCAAUAUUACGCGCA	-2.54 ± 0.34	-1.76 ± 0.49
AAUGAGCAAUAUUACGCGUU	-3.81 ± 0.27	-2.06 ± 0.23
AAUGAGCAAUAUUACGCUGA	-3.08 ± 0.38	-2.12 ± 0.24
AAUGAGCAAUAUUACGGAAU	-4.25 ± 0.37	-2.34 ± 0.32
AAUGAGCAAUAUUACGGAGU		-0.994 ± 0.44

Sequence	self-splicing fitness (ln) (30 °C)	self-splicing fitness (ln) (37 °C)
AAUGAGCAAUAUUACGGGUA		-0.858 ± 0.23
AAUGAGCAAUAUUACGGUCU	-1.96 ± 0.13	-0.956 ± 0.13
AAUGAGCAAUAUUACGGUGU	-4.53 ± 0.29	-2.55 ± 0.19
AAUGAGCAAUAUUACGGUUA	-3.02 ± 0.22	-1.86 ± 0.15
AAUGAGCAAUAUUACGUAAA	-3.26 ± 0.18	-1.1 ± 0.18
AAUGAGCAAUAUUACGUAUG		-2.92 ± 0.28
AAUGAGCAAUAUUACGUGUG	-4.35 ± 0.3	-1.65 ± 0.17
AAUGAGCAAUAUUACGUUGA	-3.71 ± 0.24	-2.25 ± 0.17
AAUUAGCAAUAUUACGAAGA	-1.25 ± 0.17	-0.985 ± 0.16
AAUUAGCAAUAUUACGACUA	0.0301 ± 0.1	0.169 ± 0.099
AAUUAGCAAUAUUACGCAGA	-1.71 ± 0.33	-1.24 ± 0.31
AAUUAGCAAUAUUACGCAGG	-2.44 ± 0.23	-1.89 ± 0.23
AAUUAGCAAUAUUACGCAUC	-2.79 ± 0.24	-1.15 ± 0.2
AAUUAGCAAUAUUACGCCGG	-2.62 ± 0.34	-0.87 ± 0.4
AAUUAGCAAUAUUACGCUGA	-2.75 ± 0.4	-2.42 ± 0.27
AAUUAGCAAUAUUACGGACC		-1.07 ± 0.48
AAUUAGCAAUAUUACGGAGC	-2.52 ± 0.3	-2.64 ± 0.33
AAUUAGCAAUAUUACGGAUA	-1.75 ± 0.11	-0.926 ± 0.11
AAUUAGCAAUAUUACGGGGG	-2.91 ± 0.15	-2.9 ± 0.27
AAUUAGCAAUAUUACGUAAG	-1.82 ± 0.12	-0.936 ± 0.13
AAUUAGCAAUAUUACGUACA	-0.782 ± 0.086	-0.498 ± 0.096
AAUUAGCAAUAUUACGUAGC	-3.24 ± 0.25	-1.08 ± 0.32
AAUUAGCAAUAUUACGUCAU	-2.24 ± 0.18	-1.7 ± 0.17
AAUUAGCAAUAUUACGUCCC	-0.346 ± 0.41	-0.0336 ± 0.49
AAUUAGCAAUAUUACGUGCG	-0.879 ± 0.12	-0.209 ± 0.14
